From publication PMC4719083, “Myosin IXa Binds AMPAR and Regulates Synaptic Structure, LTP, and Cognitive Function” (Frontiers in Molecular Neuroscience, 2016) come the findings set out here.

This test addresses T1, GST C-terminal (Myo9a amino acids 2330-2626 fused to GST) (rat, UniProt Q9Z1N3 2330-2626).
T1 construct: Myosin IXa (Myo9a), rat, NCBI AJ001713, amino acids 2330-2626 (C-terminus); Cloned into pGEX-4T1; also called Myo9a GST C-term; Myo9a C-terminus; source: E. coli BL21, purified, immobilized on glutathione-Sepharose 4B beads
T1 sequence (looked up): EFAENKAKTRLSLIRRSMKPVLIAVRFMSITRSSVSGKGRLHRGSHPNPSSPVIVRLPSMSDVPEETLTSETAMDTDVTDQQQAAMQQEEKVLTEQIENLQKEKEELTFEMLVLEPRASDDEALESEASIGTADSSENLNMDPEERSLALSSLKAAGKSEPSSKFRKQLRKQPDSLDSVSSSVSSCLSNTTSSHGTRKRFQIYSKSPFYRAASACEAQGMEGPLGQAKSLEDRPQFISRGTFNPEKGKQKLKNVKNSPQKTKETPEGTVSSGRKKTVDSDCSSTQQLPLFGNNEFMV
As to the kind of experiment: pull-down; purified GluA2 C-term (released from GST by thrombin, in PBS) incubated with glutathione Sepharose 4B-coupled GST or GST C-term from Myo9a; immunoblot. The note with it: both partners purified. In general terms: A western blot detects proteins with antibodies after separation by electrophoresis.

B1: GluA2 C-term (GluA2 intracellular C-terminal tail, amino acids 834-883, released from GST by thrombin) (domain or fragment, rat, UniProt P19491 834-883, looked up)
chain: EFCYKSRAEAKRMKVAKNPQNINPSSSQNSQNFATYKEGYNVYGIESVKI
notes: AMPA receptor subunit GluA2, rat, NCBI M85035, intracellular C-terminal tail, amino acids 834-883; Cloned into pGEX-4T1; also called purified GluA2 C-terminus; GluA2 C-terminal tail; source: E. coli BL21, purified with glutathione-Sepharose 4B resin, released by thrombin
Regarding B1, the binding result is “binds”.
